Source: patent US20190284544

Columns and labels:
[1] = system: homologous regions of other CAPN members
[2] = system: CAPN5-370-380 peptide (RQNRGGGCINH)
CAPN5p.372-378 peptide = CAPN5p.372-378 peptide (UniProt O15484)

Sequence of CAPN5-R243L (chain, as listed by the source R243L): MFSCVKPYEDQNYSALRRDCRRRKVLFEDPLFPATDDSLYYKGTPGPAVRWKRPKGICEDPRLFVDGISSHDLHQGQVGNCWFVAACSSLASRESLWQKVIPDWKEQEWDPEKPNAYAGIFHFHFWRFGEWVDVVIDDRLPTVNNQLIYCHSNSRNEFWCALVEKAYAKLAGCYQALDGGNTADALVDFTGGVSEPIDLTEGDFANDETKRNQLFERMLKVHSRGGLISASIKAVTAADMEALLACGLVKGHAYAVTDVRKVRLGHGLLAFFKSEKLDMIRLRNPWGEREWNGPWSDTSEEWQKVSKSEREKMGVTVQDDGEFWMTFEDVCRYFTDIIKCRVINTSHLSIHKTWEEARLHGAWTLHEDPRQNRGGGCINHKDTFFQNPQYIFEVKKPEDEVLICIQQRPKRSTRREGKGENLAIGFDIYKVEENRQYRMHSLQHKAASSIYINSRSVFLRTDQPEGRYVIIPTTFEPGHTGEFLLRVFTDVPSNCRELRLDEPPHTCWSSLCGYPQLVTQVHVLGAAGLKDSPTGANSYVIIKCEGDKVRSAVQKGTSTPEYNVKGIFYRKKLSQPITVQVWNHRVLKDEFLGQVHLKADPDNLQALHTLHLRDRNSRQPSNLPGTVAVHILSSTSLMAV
Sequence of CAPN5-370-390 peptide (chain, as listed by the source): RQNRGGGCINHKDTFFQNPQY
Sequence of CAPN14 peptide (chain, as listed by the source): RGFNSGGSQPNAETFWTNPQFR
Sequence of CAPN1 WT (P07384 2-714): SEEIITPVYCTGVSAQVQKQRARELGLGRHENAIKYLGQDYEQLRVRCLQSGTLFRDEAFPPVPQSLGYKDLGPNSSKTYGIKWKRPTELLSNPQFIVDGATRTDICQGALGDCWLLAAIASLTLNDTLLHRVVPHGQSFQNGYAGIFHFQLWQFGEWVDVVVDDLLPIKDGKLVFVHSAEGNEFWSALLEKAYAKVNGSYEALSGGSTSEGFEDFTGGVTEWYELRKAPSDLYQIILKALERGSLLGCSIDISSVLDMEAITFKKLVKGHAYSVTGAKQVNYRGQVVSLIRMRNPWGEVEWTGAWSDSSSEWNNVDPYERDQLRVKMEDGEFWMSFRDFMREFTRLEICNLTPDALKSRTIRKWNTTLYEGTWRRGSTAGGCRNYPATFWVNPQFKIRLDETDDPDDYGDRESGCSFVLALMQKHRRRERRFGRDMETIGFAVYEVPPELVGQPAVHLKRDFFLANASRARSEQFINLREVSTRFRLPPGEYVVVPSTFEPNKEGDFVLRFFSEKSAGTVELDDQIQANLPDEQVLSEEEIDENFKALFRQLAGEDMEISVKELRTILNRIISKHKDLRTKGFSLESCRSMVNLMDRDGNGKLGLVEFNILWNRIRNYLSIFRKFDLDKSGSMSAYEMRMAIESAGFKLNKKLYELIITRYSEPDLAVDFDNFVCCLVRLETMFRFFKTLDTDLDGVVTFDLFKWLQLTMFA
Sequence of Pep-1-Mod (chain, as listed by the source): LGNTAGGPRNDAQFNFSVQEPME
Sequence of Pep-2-Mod (chain, as listed by the source): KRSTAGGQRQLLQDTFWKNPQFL

CAPN1 WT
proteolysis [1]: CAPN1 does not appear to proteolyze these regions

CAPN5 WT (Homo sapiens calpain 5)
cleavage (change in fluorescence) [2]: the CAPN5-370-380 fragment was the most sensitive to cleavage by both WT and R243L CAPN5
cleavage (fluorescence) [2]: rapid and high cleavage of the 11 aa peptide
fluorescent intensity (FRET substrate proteolysis) [2]: CAPN5-WT proteolyzes the substrate, CAPN5 (p370-380), at a higher rate than other peptides
proteolysis (fluorescence) [2]: The peptide shows high proteolysis when incubated with CAPN5-WT
initial reaction rate (proteolysis of CAPN5p.370-80 by CAPN5 WT) (Cyclic CAPN5 p.370-80): Addition of 10 µM Cyclic CAPN5 p.370-80 slows the initial reaction rate by 40%
initial velocity versus substrate concentration, with and without 10 µM cyclic peptide (Cyclic CAPN5 p.370-80): Increasing concentrations of substrate does not overcome inhibition by cyclic peptide
proteolysis (EPLFAERK peptide): it is not proteolyzed by CAPN5
proteolysis (fluorescence) (EPLFAERK peptide): very limited proteolysis when incubated with CAPN5-WT
cleavage (fluorescence) (CAPN5p.372-378 peptide): There was mild cleavage of the 7 aa peptide was observed
cleavage (fluorescence) (CAPN5-370-390 peptide): The 21 aa peptide was cleaved slower and does not show cleavage substrate inhibition
proteolysis (CAPN14 peptide): there was some proteolysis of the CAPN14 peptide
proteolysis [1]: CAPN5 did not proteolyze homologous regions of other CAPN members as well as it proteolyzed its own site

CAPN5-R243L
cleavage (change in fluorescence) [2]: the CAPN5-370-380 fragment was the most sensitive to cleavage by both WT and R243L CAPN5
fluorescent intensity (FRET substrate proteolysis) [2]: the greatest fluorescent intensity is detected with substrates CAPN5 (p370-390), CAPN5 (370-380), and PDGFB (155-170)
fluorescent intensity (FRET substrate proteolysis) (PDGFB (155-170) peptide): the greatest fluorescent intensity is detected with substrates CAPN5 (p370-390), CAPN5 (370-380), and PDGFB (155-170)
fluorescent intensity (FRET substrate proteolysis) (CAPN5-370-390 peptide): the greatest fluorescent intensity is detected with substrates CAPN5 (p370-390), CAPN5 (370-380), and PDGFB (155-170)

MBP-CAPN5 WT
reaction rate (initial velocity of proteolysis) (Pep-2-Mod): Modification of the amino acids slows the reaction rate
reaction rate (initial velocity of proteolysis) (Pep-1-Mod): Modification of the amino acids slows the reaction rate
